Drawing on the supplement of paper PMC12042874, this text covers amyloid nucleation score for 99 substances.

± gives the uncertainty stated by the source.

The data set can be described thus: amyloid nucleation score (Sup35N fusion, yeast selection) (log enrichment); library NNK3; higher = more nucleation; inactive = no reads after selection. The gist of the method: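 Random libraries were run with three technical output replicates. In each, psi-negative yeast expressing Sup35N fused to peptides of 20 random codons were induced 24 hours with 100 μM copper sulfate and grown 7 days at 30°C on medium lacking adenine and uracil, and input and output plasmid inserts were Illumina-sequenced. The nucleation score is the DiMSum log enrichment of output over input reads, centred on the mode score of non-aggregating sequences, and sequences under 100 input reads were excluded.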
With GVNIRCLRDDDSRLLKERSC, the amyloid nucleation score result is “inactive”.
For RSGLVRSRCSRI, the amyloid nucleation score entry is “inactive”.
In the case of DLISEKEQEPGRD it was 0.406 ± 0.21; in that of QYTCDDSCILFCCASWAEWS, 2.34 ± 0.081; in that of GVGNPGWAVLM, “inactive”.
As for VGVFSIMV, the entry is “inactive”.
The substance TLYFYNTCLRQCKQYFIDFR had an amyloid nucleation score of 0.305 ± 0.16.
In the case of SLFFSYV it was “inactive”.
In the case of HYRDFPSRN it was “inactive”.
As for FGSFQMGLWFVMNEVDQVKG, the entry is “inactive”; as for LDKVSNSCTPIWPFVIET, “inactive”; as for LQFGVRINSLFYRMVSAVVG, “inactive”.
As to AYEIQWIWPNAASTVKSVLA, the amyloid nucleation score result is “inactive”.
As for IPRWKFN, the figure is -0.57 ± 1.1.
As for RSNGPLFQVVITYCVSLPLN, the entry is “inactive”.
In the case of TLQHLGYVSNIWGVVTAAGS it was “inactive”; in that of FKSLLSRISHFKFASGWYVH, “inactive”.
For the substance ELAHKIMAM, the amyloid nucleation score entry was “inactive”.
For the substance FSYCG, the amyloid nucleation score entry is “inactive”.
As for TVRDTEFLWFGDWLRRGSLS, the figure is -0.034 ± 0.77; as for NNRLMYTSHISHACSYQMLK, “inactive”; as for PDAVTILGGVYHVVQSWG, “inactive”.
In the case of FVVKYNWRYDLLIPYQMDLI, the amyloid nucleation score result is “inactive”.
In the case of GFFYRDDARNFVLVTNSWRL it was “inactive”; in that of SSVWIFRWTICNWESKF, 2.45 ± 0.052; in that of FDTVVLCWVIGIRIGPHNAL, “inactive”.
In the case of GYSSTRNLAA, the amyloid nucleation score entry is “inactive”.
In the case of SISTFYMLNMLKNMHLDGFG it was “inactive”; in that of GSVSPGNSILICFWFFWLLW, “inactive”; in that of VTPSTGRSIVVTPGTYIARV, “inactive”.
On to VQCRDVLGNDVFCVYHLGVE, for which the amyloid nucleation score entry was “inactive”.
As for TYTWKVTNSTISQLFGYLAD, the entry is “inactive”; as for FYHDMIWTILLDYTRRFHKL, “inactive”.
As for VTRMLFVHCGTSVNVNS, the entry is “inactive”; as for ICLYLRQVKLIAGAERKKVQ, “inactive”; as for RGYRAK, 1.34 ± 0.097.
Consider IALKGRAFAHEGCLRGRRGG, for which the amyloid nucleation score entry is “inactive”.
As for LSLAS, the entry is “inactive”; as for CLSLYL, “inactive”.
For IRGVECNRLGIYLLCVTHSM, the amyloid nucleation score is -0.624 ± 0.8.
GPDYHKHYRTYLPRTAFVGF displayed an amyloid nucleation score of 1.27 ± 0.17.
As for DRNEQCDSL, the entry is “inactive”; as for RPFNHVDISYAKPLDNFWM, -0.582 ± 0.98; as for VSFFDQTKASGYSLRLMLFM, “inactive”.
On to TQHTTYTPLPHTELRLPYPQ, for which the amyloid nucleation score entry is “inactive”.
With TYPVGPGGFFWDLGCV, the amyloid nucleation score result is “inactive”.
As for IRSILW, the entry is “inactive”.
For LSNDF, the amyloid nucleation score result is “inactive”.
In the case of WLVFKSVFVDRM, the amyloid nucleation score entry was “inactive”.
As for RFGDVHDCVVVSNGNLRNES, the entry is “inactive”; as for LCSHLEVDSL, “inactive”.
Consider RAGVVVFIRRLRRLMGTLGA, for which the amyloid nucleation score is -0.005 ± 1.1.
In the case of MEYRHCSFNRSRTRTLYRMN it was “inactive”; in that of KCDDIGCLGQAT, “inactive”; in that of VMSLTR, “inactive”.
For AGESEISVRMEKSHSGVASR, the amyloid nucleation score is -0.436 ± 1.7.
In the case of IIMGV it was “inactive”.
In the case of CVVGDPSGVK it was 0.62 ± 0.13; in that of YLSEPGNYRVSNVIGCNRID, “inactive”.
Turning to IVGIKVDIYNTSGCS, the amyloid nucleation score was found to be 1.7 ± 0.12.
LGLMLDILRKQDC: the amyloid nucleation score entry was “inactive”.
For FWKACTCI, the amyloid nucleation score result was “inactive”.
As for MHFLVQSCFTEPRWAACRNV, the entry is “inactive”.
As for TWDLY, the entry is “inactive”; as for LNSKFMLASTLLAKW, “inactive”.
Regarding KLNFVGLVLRNVGSWEGHGC, the amyloid nucleation score entry is “inactive”.
In the case of VFVPTKYHYMYVLGQWDIFV it was “inactive”; in that of CNGLFIGPML, “inactive”; in that of HCCFVWERRNACGMVSSWMT, “inactive”.
For the substance FRFYLCDDFMCNVLHYQPRN, the amyloid nucleation score was 3.19 ± 0.073.
As for NHKEWWFTVYLTSGVVCDLG, the entry is “inactive”; as for GRNYFENVWIHRLYSSCLVM, 1.94 ± 0.068.
Take GSVNLSVKSW: the amyloid nucleation score result was “inactive”.
As for EVSLFVTHIL, the entry is “inactive”; as for SRFDRVMQNDCCVYSCHIII, “inactive”.
In the case of MRSSIPIYVLMLIALSENSP, the amyloid nucleation score entry was “inactive”.
Regarding RIDSMRRMGYLNSIFGCFV, the amyloid nucleation score entry was “inactive”.
In the case of VWVKSGKWYRQLIRKYVGSS, the amyloid nucleation score result was “inactive”.
With NVLVN, the amyloid nucleation score result is “inactive”.
As to TVHILANRPRAQYD, the amyloid nucleation score result is “inactive”.
Consider WMELTVIQCWMAA, for which the amyloid nucleation score result was “inactive”.
As to LTNLCES, the amyloid nucleation score result was “inactive”.
As for YYFLDRGGITSTIFRLLCPF, the entry is “inactive”; as for RMKGFEFCCWDQ, -0.31 ± 0.55; as for VHLQGITSITVGIWPHKHLD, “inactive”.
In the case of YDRPSVVRTWRTREKAVSGP it was “inactive”.
Turning to STFGVVMTSSSD, the amyloid nucleation score result is “inactive”.
Take WFNTTNSGVEP: the amyloid nucleation score entry was “inactive”.
MVNWPDGRILGSLRNWRHQD: the amyloid nucleation score result was “inactive”.
Regarding RCLSNN, the amyloid nucleation score result was “inactive”.
Turning to LMFGVIMPITDDMFYGQESV, the amyloid nucleation score entry is “inactive”.
With MSCIFVSKKFLRLELGSSLY, the amyloid nucleation score result was “inactive”.
In the case of RLSRWRRSNFSE it was “inactive”; in that of CENYRMGYRNVRVSFAPPFK, “inactive”.
In the case of IVKVLFNSFGGWWYAHGLYV, the amyloid nucleation score result was “inactive”.
As for YFISWSFHGFVTSPGFWSGC, the figure is 1.41 ± 0.15; as for SFICVSSDLCARARVGDSSR, “inactive”; as for LGMCSHESYNLHEEICIW, “inactive”.
RRARKWLVIDVRVPSLWSMR: the amyloid nucleation score result was “inactive”.
